Residue numbers refer to the chain shown, from its start.
B1: 313 (protein)
chain: LDNGLARTPTMGWLHWERFMCNLDCQEEPDSCISEKLFMEMAELMVSEGWKDAGYEYLCIDDCWMAPQRDSEGRLQADPQRFPHGIRQLANYVHSKGLKFGIYADVGNKTCAGFPGSFGYYDIDSQTFADWGVDLLKFDGCYCDSLENLADGYKHMSLALNRTGRSIVYSCEWPLYMWPFQKPNYTEIRQYCNHWRNFADIDDSWASVKSILDWTSFNQEKIVDVAGPGGWNDPDMLVIGNFGLSWNQQVTQMALWAIMAAPLFMSNDLRHISPQAKALLQDKDVIAINQDPLGKQGYQLRKGDNFEVWERPLSGLAWAVAIINRQEIGGPRSYTIAVASLGGGVACNPACFITQLLPVKRKLGFYNWTSRLKSHINPTGTVLLQLENTMQMSLKDLL
modifications: Synthetic Polypeptide sequence of Variant No. 313 of mature Human GLA
B2: 314 (protein)
chain: B1 chain with S125A, K221R, N247D, I322V, G343D, I376V
modifications: Synthetic Polypeptide sequence of Variant No. 314 of mature Human GLA
B3: 315 (protein)
chain: B1 chain with S125A, K221R, I322V, G343K, F365L, I376V
modifications: Synthetic Polypeptide sequence of Variant No. 315 of mature Human GLA
B4: 316 (protein)
chain: B1 chain with S125A, K302Q, I322V, G343D
modifications: Synthetic Polypeptide sequence of Variant No. 316 of mature Human GLA
B5: 317 (protein)
chain: B1 chain with S125A, K302Q, I322V, G343D, F365L
modifications: Synthetic Polypeptide sequence of Variant No. 317 of mature Human GLA
B6: 318 (protein)
chain: B1 chain with S125A, K221T, K302Q, I322V, G343K, I376V
modifications: Synthetic Polypeptide sequence of Variant No. 318 of mature Human GLA
B7: 319 (protein)
chain: B1 chain with S125A, V208I, K221R, K302Q, G343K, I376V
modifications: Synthetic Polypeptide sequence of Variant No. 319 of mature Human GLA
B8: 320 (protein)
chain: B1 chain with S125A, V208I, K221R, N247D, G343K
modifications: Synthetic Polypeptide sequence of Variant No. 320 of mature Human GLA
B9: 321 (protein)
chain: B1 chain with S125A, V208I, N247D, K302Q
modifications: Synthetic Polypeptide sequence of Variant No. 321 of mature Human GLA
B10: 322 (protein)
chain: B1 chain with S125A, V208I, K221T, G343D
modifications: Synthetic Polypeptide sequence of Variant No. 322 of mature Human GLA

Test: HTP-analysis of supernatants pretreated with base (MUGal hydrolysis)
Format: biochemical
Settings: challenge at pH 8.2; activity of the variant/activity of Rd3BB (SEQ ID NO: 13); yeast culture supernatant
Outline: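 Supernatants from INVSc1 yeast expressing GLA variants (SD-Ura, 66-84 h, 30° C) were mixed with McIlvaine buffer pH 7.0-8.2 or 200 mM sodium bicarbonate pH 9.1-9.7 and held 1-18 h at 37° C. Residual activity was then measured on MUGal at pH 4.8/4.3, 37° C, 30-180 min, by fluorescence (Ex 355/Em 448 nm).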

Row | Molecule | Relative Activity of GLA Variants After Challenge at pH 8.2
1 | B1 | − (− = <0.5 relative activity to Rd3BB (SEQ ID NO: 13))
2 | B2 | ++ (++ = >1.5 to 2.5 relative activity over Rd3BB (SEQ ID NO: 13))
3 | B3 | + (+ = 0.5 to 1.5 relative activity over Rd3BB (SEQ ID NO: 13))
4 | B4 | + (+ = 0.5 to 1.5 relative activity over Rd3BB (SEQ ID NO: 13))
5 | B5 | − (− = <0.5 relative activity to Rd3BB (SEQ ID NO: 13))
6 | B6 | ++ (++ = >1.5 to 2.5 relative activity over Rd3BB (SEQ ID NO: 13))
7 | B7 | + (+ = 0.5 to 1.5 relative activity over Rd3BB (SEQ ID NO: 13))
8 | B8 | + (+ = 0.5 to 1.5 relative activity over Rd3BB (SEQ ID NO: 13))
9 | B9 | +++ (+++ = >2.5 relative activity over Rd3BB (SEQ ID NO: 13))
10 | B10 | ++ (++ = >1.5 to 2.5 relative activity over Rd3BB (SEQ ID NO: 13))

Test: HTP-analysis of yeast culture supernatants, no challenge (MUGal hydrolysis)
Format: biochemical
Settings: activity of the variant/activity of Rd3BB (SEQ ID NO: 13), yeast culture supernatant
Outline: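 Activity read as 4-methylumbelliferyl α-D-galactopyranoside hydrolysis: fluorescence (355/448 nm) after sodium carbonate stop, following 30-180 min at 37° C with 2 mM MUGal stock at pH 4.6–4.8. Enzyme source is unchallenged culture supernatant of INVSc1 yeast expressing GLA variants, grown 66-84 h at 30° C.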

Row | Molecule | Relative Activity of GLA Variants After No Challenge (NC)
11 | B1 | + (+ = 0.5 to 1.5 relative activity over Rd3BB (SEQ ID NO: 13))
12 | B2 | + (+ = 0.5 to 1.5 relative activity over Rd3BB (SEQ ID NO: 13))
13 | B3 | + (+ = 0.5 to 1.5 relative activity over Rd3BB (SEQ ID NO: 13))
14 | B4 | + (+ = 0.5 to 1.5 relative activity over Rd3BB (SEQ ID NO: 13))
15 | B5 | + (+ = 0.5 to 1.5 relative activity over Rd3BB (SEQ ID NO: 13))
16 | B6 | + (+ = 0.5 to 1.5 relative activity over Rd3BB (SEQ ID NO: 13))
17 | B7 | + (+ = 0.5 to 1.5 relative activity over Rd3BB (SEQ ID NO: 13))
18 | B8 | + (+ = 0.5 to 1.5 relative activity over Rd3BB (SEQ ID NO: 13))
19 | B9 | ++ (++ = >1.5 to 2.5 relative activity over Rd3BB (SEQ ID NO: 13))
20 | B10 | + (+ = 0.5 to 1.5 relative activity over Rd3BB (SEQ ID NO: 13))

Test: HTP-analysis of supernatants pretreated with bovine serum (MUGal hydrolysis)
Format: biochemical
Settings: activity of the variant/activity of Rd3BB (SEQ ID NO: 13), yeast culture supernatant
Outline: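 Yeast INVSc1 culture supernatants containing secreted GLA variants were mixed with bovine serum (20:80) and held 1 h at 37° C. Serum-treated samples then reacted with MUGal (4 mM stock) in citrate/McIlvaine buffer (pH 4.3/4.8) for 180 min at 37° C., were quenched with sodium carbonate, and read by fluorescence (Ex 355, Em 448 nm).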

Row | Molecule | Relative Activity of GLA Variants After Challenge with Serum
21 | B1 | + (+ = 0.5 to 1.5 relative activity over Rd3BB (SEQ ID NO: 13))
22 | B2 | + (+ = 0.5 to 1.5 relative activity over Rd3BB (SEQ ID NO: 13))
23 | B3 | + (+ = 0.5 to 1.5 relative activity over Rd3BB (SEQ ID NO: 13))
24 | B4 | + (+ = 0.5 to 1.5 relative activity over Rd3BB (SEQ ID NO: 13))
25 | B5 | − (− = <0.5 relative activity to Rd3BB (SEQ ID NO: 13))
26 | B6 | + (+ = 0.5 to 1.5 relative activity over Rd3BB (SEQ ID NO: 13))
27 | B7 | + (+ = 0.5 to 1.5 relative activity over Rd3BB (SEQ ID NO: 13))
28 | B8 | + (+ = 0.5 to 1.5 relative activity over Rd3BB (SEQ ID NO: 13))
29 | B9 | + (+ = 0.5 to 1.5 relative activity over Rd3BB (SEQ ID NO: 13))
30 | B10 | + (+ = 0.5 to 1.5 relative activity over Rd3BB (SEQ ID NO: 13))

Test: HTP-analysis of supernatants pretreated with acid (MUGal hydrolysis)
Format: biochemical
Settings: challenge at pH 4.0; activity of the variant/activity of Rd3BB (SEQ ID NO: 13); yeast culture supernatant
Outline: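 Fluorescence of MUGal hydrolysis (Ex. 355 nm, Em. 448 nm) is read after sodium carbonate quench. The enzyme source is INVSc1 yeast culture supernatant, first exposed to pH 3.3-4.3 McIlvaine buffer at 37° C. for 1-3 h, then reacted at pH 4.8 for 30-180 minutes.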

Row | Molecule | Relative Activity of GLA Variants After Challenge at pH 4.0
31 | B1 | + (+ = 0.5 to 1.5 relative activity over Rd3BB (SEQ ID NO: 13))
32 | B2 | ++ (++ = >1.5 to 2.5 relative activity over Rd3BB (SEQ ID NO: 13))
33 | B3 | + (+ = 0.5 to 1.5 relative activity over Rd3BB (SEQ ID NO: 13))
34 | B4 | + (+ = 0.5 to 1.5 relative activity over Rd3BB (SEQ ID NO: 13))
35 | B5 | + (+ = 0.5 to 1.5 relative activity over Rd3BB (SEQ ID NO: 13))
36 | B6 | + (+ = 0.5 to 1.5 relative activity over Rd3BB (SEQ ID NO: 13))
37 | B7 | + (+ = 0.5 to 1.5 relative activity over Rd3BB (SEQ ID NO: 13))
38 | B8 | + (+ = 0.5 to 1.5 relative activity over Rd3BB (SEQ ID NO: 13))
39 | B9 | ++ (++ = >1.5 to 2.5 relative activity over Rd3BB (SEQ ID NO: 13))
40 | B10 | + (+ = 0.5 to 1.5 relative activity over Rd3BB (SEQ ID NO: 13))

From US11278600B2, “Human alpha-galactosidase variants” (Codexis, Inc., priority 2014, dated 2022)
